Values quoted from earlier work in publication PMC2975797.

Molecular target: von Willebrand factor (Homo sapiens) (UniProt P04275)

Kd: < 0.5 nM
Substance: Factor VIII (from UniProt P00451)
